Test results as given in patent US6759384 (AVENTIS PHARMACEUTICALS, dated 2004).
Starred links: 1 amine or outer side, 2 acyl side, 3 side chain; linkers in the order of their positions; H or OH if unused. Non-standard residues stand in square brackets, D forms with d. No end group written: not given here. *: point of attachment. (iBu)F(pNH2) = N-alpha-isobutyl-4-amino-phenylalanine, CC(C)CN([C@@H](Cc1ccc(N[*:3])cc1)C(=O)[*:2])[*:1]; (iBu)Phe(4-NH2) = N-isobutyl-4-amino-L-phenylalanine, CC(C)CN([C@@H](Cc1ccc(N[*:3])cc1)C(=O)[*:2])[*:1]; (iBu)Phe(4-CN) = N-isobutyl-4-cyano-L-phenylalanine, CC(C)CN([C@@H](Cc1ccc(C#N)cc1)C(=O)[*:2])[*:1]; (iBu)Y = N-alpha-isobutyl-tyrosine, CC(C)CN([C@@H](Cc1ccc(O[*:3])cc1)C(=O)[*:2])[*:1]; dpAph = D-4-amidinophenylalanine, N=C(N)c1ccc(C[C@@H](N[*:1])C(=O)[*:2])cc1; Phe(4-amidino) = N=C(N)c1ccc(C[C@H](N)C(=O)O)cc1; Phe(4-CONH2) = NC(=O)c1ccc(C[C@H](N)C(=O)O)cc1; 2‑pyridonyl = 2-pyridonyl N-terminal group; Phe(4-NH2) = Nc1ccc(C[C@H](N)C(=O)O)cc1; 2‑naphthylmethyl = c1ccc2cc(C*)ccc2c1; Chg = N[C@H](C(=O)O)C1CCCCC1; Tfa = O=C(C(F)(F)F)*; Bz = O=C(c1ccccc1)*

B1: Ac-Y-Chg-R-L-P-NH2 (peptide)
peptide: Ac-Y[Chg]RLP-NH2
SMILES: CC(=O)N[C@@H](Cc1ccc(O)cc1)C(=O)N[C@H](C(=O)N[C@@H](CCCNC(=N)N)C(=O)N[C@@H](CC(C)C)C(=O)N1CCC[C@H]1C(N)=O)C1CCCCC1
notes: also called Ac-Tyr-Chg-Arg-Leu-Pro-NH2
B2: Tfa-(iBu)Y-Chg-R-L-P-NH2 (peptide)
peptide: Tfa-[(iBu)Y][Chg]RLP-NH2
notes: also called Tfa-(iBu)Tyr-Chg-Arg-Leu-Pro-NH2
B3: Ac-F(pCONH2)-Chg-R-L-P-NH2 (peptide)
peptide: Ac-[Phe(4-CONH2)][Chg]RLP-NH2
SMILES: CC(=O)N[C@@H](Cc1ccc(C(N)=O)cc1)C(=O)N[C@H](C(=O)N[C@@H](CCCNC(=N)N)C(=O)N[C@@H](CC(C)C)C(=O)N1CCC[C@H]1C(N)=O)C1CCCCC1
notes: also called Ac-Phe(pCONH2)-Chg-R-L-P-NH2; Ac-Phe(p-CONH2)-Chg-Arg-Leu-Pro-NH2
B4: Ac-W-Chg-R-L-P-NH2 (peptide)
peptide: Ac-W[Chg]RLP-NH2
SMILES: CC(=O)N[C@@H](Cc1c[nH]c2ccccc12)C(=O)N[C@H](C(=O)N[C@@H](CCCNC(=N)N)C(=O)N[C@@H](CC(C)C)C(=O)N1CCC[C@H]1C(N)=O)C1CCCCC1
notes: also called Ac-Trp-Chg-Arg-Leu-Pro-NH2
B5: Ac-F(pNH2)-Chg-R-L-P-NH2 (peptide)
peptide: Ac-[Phe(4-NH2)][Chg]RLP-NH2
SMILES: CC(=O)N[C@@H](Cc1ccc(N)cc1)C(=O)N[C@H](C(=O)N[C@@H](CCCNC(=N)N)C(=O)N[C@@H](CC(C)C)C(=O)N1CCC[C@H]1C(N)=O)C1CCCCC1
notes: also called Ac-Phe(pNH2)-Chg-Arg-Leu-Pro-NH2
B6: Ac-pAph-I-R-L-P-NH2 (peptide)
peptide: Ac-[Phe(4-amidino)]IRLP-NH2
SMILES: CC[C@H](C)[C@H](NC(=O)[C@H](Cc1ccc(C(=N)N)cc1)NC(C)=O)C(=O)N[C@@H](CCCNC(=N)N)C(=O)N[C@@H](CC(C)C)C(=O)N1CCC[C@H]1C(N)=O
B7: Tfa-(iBu)F(pNH2)-Chg-R-L-P-NH2 (peptide)
peptide: Tfa-[(iBu)F(pNH2)][Chg]RLP-NH2
SMILES: CC(C)C[C@H](NC(=O)[C@H](CCCNC(=N)N)NC(=O)[C@@H](NC(=O)[C@H](Cc1ccc(N)cc1)N(CC(C)C)C(=O)C(F)(F)F)C1CCCCC1)C(=O)N1CCC[C@H]1C(N)=O
notes: also called CF3C(O)-(iBu)Phe(NH2)-Chg-Arg-Leu-Pro-NH2
B8: 5-Bzim-CO-F(pNH2)-Chg-R-L-P-NH2 (peptide)
peptide: {5‑benzimidazolecarbonyl}-[Phe(4-NH2)][Chg]RLP-NH2
notes: also called (5-benzimidazoyl)-Phe(NH2)-Chg-Arg-Leu-Pro-NH2
B9: Ac-(Chx-CH2)Y-I-R-L-P-NH2 (peptide)
peptide: XIRLP
modifications: N-term Ac; N-(Chx-CH2) on Y1; C-term NH2
notes: also called Ac-(Chx-CH2)Tyr-Ile-Arg-Leu-Pro-NH2; Ac-(Chx-CH2)-Tyr-Ile-Arg-Leu-Pro-NH2
B10: Ac-(2-Me-nPentyl)Y-I-R-L-P-NH2 (peptide)
peptide: XIRLP
modifications: N-term Ac; N-(2-Me-nPentyl) on Y1; C-term NH2
notes: also called Ac-(CH3CH2CH2CH(CH3)CH2)-Y-I-R-L-P-NH2
B11: Ac-(iBu)F(pNH2)-Chg-R-L-P-NH2 (peptide)
peptide: Ac-[(iBu)Phe(4-NH2)][Chg]RLP-NH2
notes: also called Ac-(iBu)-Phe(pNH2)-Chg-Arg-Leu-Pro-NH2
B12: (2-naphythl-CH2)Phe(pNH2)-Chg-Arg-Leu-Pro-NH2 (peptide)
peptide: {2‑naphthylmethyl}-[Phe(4-NH2)][Chg]RLP-NH2
SMILES: CC(C)C[C@H](NC(=O)[C@H](CCCNC(=N)N)NC(=O)[C@@H](NC(=O)[C@H](Cc1ccc(N)cc1)NCc1ccc2ccccc2c1)C1CCCCC1)C(=O)N1CCC[C@H]1C(N)=O
B13: (Benzoyl)-Phe(pNH2)-Chg-Arg-Leu-Pro-NH2 (peptide)
peptide: Bz-[Phe(4-NH2)][Chg]RLP-NH2
SMILES: CC(C)C[C@H](NC(=O)[C@H](CCCNC(=N)N)NC(=O)[C@@H](NC(=O)[C@H](Cc1ccc(N)cc1)NC(=O)c1ccccc1)C1CCCCC1)C(=O)N1CCC[C@H]1C(N)=O
notes: also called Bz-F(pNH2)-Chg-R-L-P-NH2

biological target: T1, human factor Xa (Enzyme Research Laboratories, Inc.) (human, UniProt P00742 41-179; P00742 235-488, limits assumed); assay: chromogenic FXa inhibition
Experimental: (§1) TBS-P buffer (50 mM Tris-Cl, pH 7.8, 200 mM NaCl, 0.05% (w/v) PEG-8000, 0.02% (w/v) NaN_3) was used for this assay. The IC$50$ was determined by combining in appropriate wells of a Costar half-area microtiter plate 25 μl human factor Xa (Enzyme Research Laboratories, Inc.; South Bend Ind.) in TBS-P; 40 μl 10% (v/v) DMSO in TBS-P (uninhibited control) or various concentrations of a peptide to be tested diluted in 10% (v/v) DMSO in TBS-P; and substrate S-2765 (Nα-benzyloxycarbonyl-D-Arg-Gly-L-Arg-p-nitroanilide; Kabi Pharmacia, Inc.; Franklin Ohio) in TBS-P.
(§2) The assays were performed by pre-incubating the peptide inhibitor plus enzyme for 10 min, then the assay was initiated by adding substrate to obtain a final volume of 100 μl. The initial velocity of chromogenic substrate hydrolysis was measured by the change in absorbance at 405 nm using a Bio-tek Instruments kinetic plate reader (Ceres UV900HDi) at 25° C. during the linear portion of the time course (usually 1–5 min after addition of substrate). The concentration of inhibitor that caused a 50% decrease in the rate of substrate hydrolysis was predicted by linear regression after plotting the relative rates of hydrolysis (compared to the uninhibited control) versus the log of the peptide concentration. The enzyme concentration was 0.5 nM and substrate concentration was 140 μM.

T1 sequence (P00742 41-179 limits assumed, chain 1 of 2): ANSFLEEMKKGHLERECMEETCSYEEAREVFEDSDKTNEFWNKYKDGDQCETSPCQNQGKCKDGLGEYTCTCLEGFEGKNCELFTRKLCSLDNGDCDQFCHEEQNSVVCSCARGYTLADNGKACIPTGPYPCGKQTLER
T1 sequence (P00742 235-488 limits assumed, chain 2 of 2): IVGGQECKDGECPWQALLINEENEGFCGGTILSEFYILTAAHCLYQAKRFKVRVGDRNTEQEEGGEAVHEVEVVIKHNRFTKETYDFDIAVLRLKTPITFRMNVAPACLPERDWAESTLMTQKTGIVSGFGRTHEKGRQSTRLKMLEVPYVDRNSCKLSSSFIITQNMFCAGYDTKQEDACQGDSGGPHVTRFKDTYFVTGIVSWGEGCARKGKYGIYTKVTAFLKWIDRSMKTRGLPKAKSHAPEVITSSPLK

Row | Binder | Ki [nM]
1 | XIRLP (N-(iBu) on Y1; C-term NH2) [(iBu)Y-I-R-L-P-NH2] | 2600

biological target: T1, human factor Xa (Enzyme Research …); assay: cell-based or functional assay

Row | Binder | EC50 (concentration giving 50% inhibition of coagulation), in vitro dilute prothrombin time assay, pooled human plasma [nM]
2 | B1 | 225
3 | B2 | 300

biological target: T1, human factor Xa (Enzyme Research …); assay: chromogenic FXa inhibition; remark: another data set of the same source
In short: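 Human FXa (0.5 nM) preincubated 10 min with inhibitor in TBS-P (pH 7.8, 200 mM NaCl, PEG-8000), then S-2765 added (140 μM). Initial hydrolysis rate read at 405 nm, 25° C.; IC50 by linear regression of relative rate vs log concentration.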

Row | Binder | Ki [µM]
4 | B3 | < 100
5 | B4 | < 100
6 | B1 | < 100
7 | B2 | < 100
8 | Tfa-Y[Chg]RLP-NH2 [Tfa-Y-Chg-R-L-P-NH2] | < 100
9 | [dY][Chg]RLP-NH2 (also called D-Tyr-Chg-Arg-Leu-Pro-NH2) [y-Chg-R-L-P-NH2] | < 100
10 | YIRLP (D-Tyr at 1; C-term NH2, also called (D)-Tyr-Ile-Arg-Leu-Pro-NH2) [y-I-R-L-P-NH2] | < 100
11 | XIRLP (N-term Ac; N-(iBu) on Y1; C-term NH2) [Ac-(iBu)Y-I-R-L-P-NH2] | < 100
12 | B5 | < 100
13 | B6 | < 100
14 | XIRLP (N-(iBu) on Y1; C-term NH2) [(iBu)Y-I-R-L-P-NH2] | < 100
15 | B7 | < 100
16 | XIRLP (N-term Tfa; N-(iBu) on Y1; C-term NH2) [Tfa-(iBu)Y-I-R-L-P-NH2] | < 100
17 | B8 | < 100
18 | B9 | < 100
19 | B10 | < 100
20 | XIRLP (N-term Ac; N-(2-Me-nBu) on Y1; C-term NH2) [Ac-(2-Me-nBu)Y-I-R-L-P-NH2] | < 100
21 | B11 | < 100

biological target: T1, human factor Xa (Enzyme Research …); assay: chromogenic FXa inhibition; remark: another data set of the same source
Experimental: as §1, §2

Row | Binder | Ki [µM]
22 | B3 | < 100
23 | B4 | < 100
24 | B1 | < 100
25 | Tfa-Y[Chg]RLP-NH2 [Tfa-Y-Chg-R-L-P-NH2] | < 100
26 | [dY][Chg]RLP-NH2 (also called D-Tyr-Chg-Arg-Leu-Pro-NH2) [y-Chg-R-L-P-NH2] | < 100
27 | B5 | < 100
28 | B6 | < 100
29 | B7 | < 100
30 | XIRLP (N-term Tfa; N-(iBu) on Y1; C-term NH2) [Tfa-(iBu)Y-I-R-L-P-NH2] | < 100
31 | B8 | < 100
32 | B9 | < 100
33 | B12 | < 100
34 | B13 | < 100
35 | B10 | < 100
36 | {2‑pyridonyl}-[Phe(4-NH2)][Chg]RLP-NH2 [(2-pyridonyl)Phe(pNH2)Chg-Arg-Leu-Pro-NH2] | < 100
37 | Ac-[(iBu)Phe(4-CN)][Chg]RLP-NH2 [Ac-(iBu)Phe(pCN)-Chg-Arg-Leu-Pro-NH2] | < 100
38 | XIRLP (N-term Ac; N-(2-Me-nBu) on Y1; C-term NH2) [Ac-(2-Me-nBu)Y-I-R-L-P-NH2] | < 100
39 | {2‑naphthylsulfonyl}-[Phe(4-NH2)][Chg]RLP-NH2 [(2-naphthylsulfonyl)-Phe(pNH2)-Chg-Arg-Leu-Pro-NH2] | < 100
40 | {2‑methylbenzyl}-[Phe(4-NH2)][Chg]RLP-NH2 [(2-methylbenzyl)-Phe(pNH2)-Chg-Arg-Leu-Pro-NH2] | < 100
41 | B11 | < 100
42 | Ac-[dpAph]IRLP-NH2 [Ac-D-pAph-Ile-Arg-Leu-Pro-NH2] | < 100

biological target: T1, human factor Xa (Enzyme Research …); assay: chromogenic enzyme inhibition, IC50 corrected for substrate

Row | Binder | Ki [nM]
43 | YIRLP (D-Tyr at 1; C-term NH2, also called (D)-Tyr-Ile-Arg-Leu-Pro-NH2) [y-I-R-L-P-NH2] | 200
44 | XIRLP (N-term Ac; N-(iBu) on Y1; C-term NH2) [Ac-(iBu)Y-I-R-L-P-NH2] | 40

biological target: human thrombin (Enzyme Research Laboratories, Inc.) (human, UniProt P00734 328-622); assay: as above

Row | Binder | Ki [µM]
45 | XIRLP (N-term Ac; N-(iBu) on Y1; C-term NH2) [Ac-(iBu)Y-I-R-L-P-NH2] | 25
